Laboratory results from patent publication US20180038859A1.

Experiments:
Assay in all cases: cell-based or functional assay
[1] = biological target: CXCR1 (human) (UniProt P25024)
[2] = biological target: hCCR2b (human) (UniProt P41597)
[3] = biological target: hCCR2b (human), P41597
hCCR2b (human), P41597, sequence (P41597 whole entry): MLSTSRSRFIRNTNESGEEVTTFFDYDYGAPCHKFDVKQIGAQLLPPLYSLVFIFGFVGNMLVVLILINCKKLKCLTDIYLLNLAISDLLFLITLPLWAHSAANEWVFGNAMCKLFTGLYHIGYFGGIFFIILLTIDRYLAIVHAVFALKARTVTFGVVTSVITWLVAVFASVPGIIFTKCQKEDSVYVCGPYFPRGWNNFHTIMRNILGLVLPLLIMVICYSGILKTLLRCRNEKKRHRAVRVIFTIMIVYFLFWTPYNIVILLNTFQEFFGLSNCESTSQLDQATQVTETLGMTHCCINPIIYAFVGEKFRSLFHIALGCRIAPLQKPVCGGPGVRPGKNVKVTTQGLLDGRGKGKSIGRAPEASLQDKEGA

hCCR2b (human), sequence (P41597 whole entry): as above
CXCR1 (human), sequence (P25024 whole entry): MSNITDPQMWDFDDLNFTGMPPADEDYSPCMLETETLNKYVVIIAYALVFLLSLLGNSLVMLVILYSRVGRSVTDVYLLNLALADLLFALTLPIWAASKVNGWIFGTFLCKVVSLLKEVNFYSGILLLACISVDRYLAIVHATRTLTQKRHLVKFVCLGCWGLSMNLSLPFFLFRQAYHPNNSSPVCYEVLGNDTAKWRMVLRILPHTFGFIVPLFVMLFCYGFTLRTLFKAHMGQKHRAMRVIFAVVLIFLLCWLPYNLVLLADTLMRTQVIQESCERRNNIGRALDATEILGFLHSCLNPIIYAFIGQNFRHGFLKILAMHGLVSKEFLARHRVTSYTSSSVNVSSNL

recombinant native IL-8 (from UniProt P10145 28-99) (ligand)
EC50, agonist activity in an Aequorin assay [1]: 5.2 nM

recombinant native MCP-1 (from UniProt P13500 24-99) (ligand)
EC50, agonist activity in an Aequorin assay [2]: 3.1 nM

recombinant native MCP-2 (from UniProt P80075 24-99) (ligand)
EC50, activity (partial agonist) in an Aequorin assay [2]: 23.5 nM

B1: biotinMCP-2 (CCL8), P80075 24-99 (ligand)
chain: QPDSVSIPITCCFNVINRKIPIQRLESYTRITNIQCPKEAVIFKTKRGKEVCADPKERWVRDSMKHLDQIFQNLKP
modifications: here or on the partner: pyroGlu at position 1 (replaces Gln1); Lys75 epsilon-amino PEG-Biotin; C-terminal amide
EC50, activity (partial agonist) in an Aequorin assay [3]: 50.9 nM
